Assay results published in patent CN114146174A (HEADA BIOPHARMACEUTICAL SUZHOU CO LTD, dated 2022).

Columns and labels:
[1] = molecular target: T1, 人PD-L1抗原(购自Promega) (human, UniProt Q9NZQ7 19-238, limits assumed); experiment: direct ELISA on coated human PD-L1 antigen; relative binding activity after 1 month at 40℃±2℃, pH 5.0-7.0 samples
T1 construct: Bought antigen coated on the ELISA plate; also called human PD-L1; CD274

[2] = molecular target: T2, 人OX40抗原(购自Sino) (human, UniProt P43489 29-216, limits assumed); experiment: direct ELISA on coated human OX40 antigen; relative binding activity after 1 month at 40℃±2℃, pH 5.0-7.0 samples
T2 construct: Bought antigen coated on the ELISA plate; also called human OX40; CD134
T2 sequence (looked up): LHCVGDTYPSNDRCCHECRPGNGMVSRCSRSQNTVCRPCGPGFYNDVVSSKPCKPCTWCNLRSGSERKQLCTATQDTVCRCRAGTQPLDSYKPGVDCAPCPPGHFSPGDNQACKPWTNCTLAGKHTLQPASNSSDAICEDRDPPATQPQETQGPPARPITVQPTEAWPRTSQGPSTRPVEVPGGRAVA

T1 sequence (Q9NZQ7 19-238 limits assumed): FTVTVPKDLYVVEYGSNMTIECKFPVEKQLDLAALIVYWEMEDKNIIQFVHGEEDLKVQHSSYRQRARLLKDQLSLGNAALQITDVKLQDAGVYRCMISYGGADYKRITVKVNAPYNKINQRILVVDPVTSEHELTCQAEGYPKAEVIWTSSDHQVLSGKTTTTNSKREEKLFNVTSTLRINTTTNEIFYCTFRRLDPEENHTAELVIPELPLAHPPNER

binding result [1]: binds
binding result [2]: binds
B1: 抗PD-L1/OX40双特异性抗体 (bispecific antibody, human IgG2, kappa)
heavy: QVQLVQSGAEVKKPGASVKVSCKASGYTFTSYYMHWVRQAPGQGLEWMGIINPSGGSTSYAQKFQGRVTMTRDTSTSTVYMELSSLRSEDTAVYYCARDHASSSWYTTHLDLWGRGTLVTVSSASTKGPSVFPLAPCSRSTSESTAALGCLVKDYFPEPVTVSWNSGALTSGVHTFPAVLQSSGLYSLSSVVTVPSSNFGTQTYTCNVDHKPSNTKVDKTVERKCCVECPPCPAPPVAGPSVFLFPPKPKDTLMISRTPEVTCVVVDVSHEDPEVQFNWYVDGVEVHNAKTKPREEQFNSTFRVVSVLTVVHQDWLNGKEYKCKVSNKGLPAPIEKTISKTKGQPREPQVYTLPPSREEMTKNQVSLTCLVKGFYPSDIAVEWESNGQPENNYKTTPPMLDSDGSFFLYSKLTVDKSRWQQGNVFSCSVMHEALHNHYTQKSLSLSPGGGGGSGGGGSQVQLQESGGGLVQPGGSLRLSCAASAYTISRNSMGWFRQAPGKGLEGVAAIESDGSTSYSDSVKGRFTISLDNSKNTLYLEMNSLRAEDTAVYYCAAPKVGLGPRTALGHLAFMTLPALNYWGQGTLVTVSS
light: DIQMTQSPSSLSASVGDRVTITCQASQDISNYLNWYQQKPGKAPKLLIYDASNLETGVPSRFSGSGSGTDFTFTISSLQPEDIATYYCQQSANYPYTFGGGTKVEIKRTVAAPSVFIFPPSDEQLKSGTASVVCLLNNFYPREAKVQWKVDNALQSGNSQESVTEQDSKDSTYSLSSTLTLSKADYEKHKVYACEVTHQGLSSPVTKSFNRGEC
notes: also called 重组抗肿瘤坏死因子受体超家族成员4(OX40)和抗程序性死亡配体1(PD-L1)双特异性抗体; anti-PD-L1/OX40 bispecific antibody
